Source: publication PMC4337721 (2015)

How the values were obtained:
[1] = target: T1, full-length BiP (BiP FL, residues 28–654), His6-tag removed (human, UniProt P11021 28-654); assay: MST; 10 mM AMPPNP
[2] = target: T1, full-length BiP (BiP FL, residues …); assay: MST; 10 mM ADP
[3] = target: T1, full-length BiP (BiP FL, residues …); assay: MST; no nucleotide
[4] = target: T1, full-length BiP (BiP FL, residues …); assay: MST; 10 mM ATP
[5] = target: BiP ATPase domain (residues 28–405), His6-tag removed (human, UniProt P11021 28-405); assay: MST
BiP ATPase domain (residues 28–405), His6-tag removed, sequence (P11021 28-405): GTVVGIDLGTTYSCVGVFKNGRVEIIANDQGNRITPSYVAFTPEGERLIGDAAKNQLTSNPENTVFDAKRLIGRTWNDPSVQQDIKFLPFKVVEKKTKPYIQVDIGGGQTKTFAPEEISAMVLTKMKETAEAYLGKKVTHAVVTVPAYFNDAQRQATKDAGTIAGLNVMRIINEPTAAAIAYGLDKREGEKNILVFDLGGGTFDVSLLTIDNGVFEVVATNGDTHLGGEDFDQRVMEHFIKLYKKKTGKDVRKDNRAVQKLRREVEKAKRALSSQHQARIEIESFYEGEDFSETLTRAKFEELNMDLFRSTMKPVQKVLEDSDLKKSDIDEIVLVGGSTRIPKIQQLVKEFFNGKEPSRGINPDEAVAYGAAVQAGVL

T1 sequence (P11021 28-654): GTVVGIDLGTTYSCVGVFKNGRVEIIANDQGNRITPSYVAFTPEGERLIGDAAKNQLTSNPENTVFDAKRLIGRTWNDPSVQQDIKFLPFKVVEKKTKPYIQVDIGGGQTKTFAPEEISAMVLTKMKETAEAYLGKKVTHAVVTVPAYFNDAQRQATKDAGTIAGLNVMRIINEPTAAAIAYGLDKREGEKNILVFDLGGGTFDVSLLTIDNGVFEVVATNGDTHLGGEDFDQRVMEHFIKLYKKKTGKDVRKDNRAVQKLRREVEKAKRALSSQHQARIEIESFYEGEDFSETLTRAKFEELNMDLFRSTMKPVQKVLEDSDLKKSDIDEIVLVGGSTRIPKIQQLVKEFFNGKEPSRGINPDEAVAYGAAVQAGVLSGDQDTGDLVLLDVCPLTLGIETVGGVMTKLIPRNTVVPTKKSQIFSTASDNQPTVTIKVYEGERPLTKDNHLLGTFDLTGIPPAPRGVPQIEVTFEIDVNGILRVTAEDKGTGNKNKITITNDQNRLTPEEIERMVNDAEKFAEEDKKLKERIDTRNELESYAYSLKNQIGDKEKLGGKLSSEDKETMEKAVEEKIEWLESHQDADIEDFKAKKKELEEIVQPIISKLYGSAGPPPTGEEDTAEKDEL

Kd [1] | Kd [2] | Kd [3] | Kd [4] | Kd [5] | Binder
1140 nM | 1200 nM | 1920 nM | 1090 nM |  | Ire1 luminal domain, complete (region I–V, residues 24–440) (domain or fragment) STVTLPETLLFVSTLDGSLHAVSKRTGSIKWTLKEDPVLQVPTHVEEPAFLPDPNDGSLYTLGSKNNEGLTKLPFTIPELVQASPCRSSDGILYMGKKQDIWYVIDLLTGEKQQTLSSAFADSLCPSTSLLYLGRTEYTITMYDTKTRELRWNATYFDYAASLPEDDVDYKMSHFVSNGDGLVVTVDSESGDVLWIQNYASPVVAFYVWQREGLRKVMHINVAVETLRYLTFMSGEVGRITKWKYPFPKETEAKSKLTPTLYVGKYSTSLYASPSMVHEGVAVVPRGSTLPLLEGPQTDGVTIGDKGECVITPSTDVKFDPGLKSKNKLNYLRNYWLLIGHHETPLSASTKMLERFPNNLPKHRENVIPADSEKKSFEEVINLVDQTSENAPTTVSRDVEEKPAHAPARPEAPVDSM
850 nM | 1370 nM | 1340 nM | 830 nM |  | Perk luminal domain, complete (region I–V, residues 54–509) (domain or fragment) TSATRVPAAGAVAAAEVTVEDAEALPAAAGEQEPRGPEPDDETELRPRGRSLVIISTLDGRIAALDPENHGKKQWDLDVGSGSLVSSSLSKPEVFGNKMIIPSLDGALFQWDQDRESMETVPFTVESLLESSYKFGDDVVLVGGKSLTTYGLSAYSGKVRYICSALGCRQWDSDEMEQEEDILLLQRTQKTVRAVGPRSGNEKWNFSVGHFELRYIPDMETRAGFIESTFKPNENTEESKIISDVEEQEAAIMDIVIKVSVADWKVMAFSKKGGHLEWEYQFCTPIASAWLLKDGKVIPISLFDDTSYTSNDDVLEDEEDIVEAARGATENSVYLGMYRGQLYLQSSVRISEKFPSSPKALESVTNENAIIPLPTIKWKPLIHSPSRTPVLVGSDEFDKCLSNDKFSHEEYSNGALSILQYPYDNGYYLPYYKRERNKRSTQITVRFLDNPHYNKN
 |  |  |  | 2020 nM | Ire1 luminal domain region II–V (residues 32–440) (domain or fragment) LLFVSTLDGSLHAVSKRTGSIKWTLKEDPVLQVPTHVEEPAFLPDPNDGSLYTLGSKNNEGLTKLPFTIPELVQASPCRSSDGILYMGKKQDIWYVIDLLTGEKQQTLSSAFADSLCPSTSLLYLGRTEYTITMYDTKTRELRWNATYFDYAASLPEDDVDYKMSHFVSNGDGLVVTVDSESGDVLWIQNYASPVVAFYVWQREGLRKVMHINVAVETLRYLTFMSGEVGRITKWKYPFPKETEAKSKLTPTLYVGKYSTSLYASPSMVHEGVAVVPRGSTLPLLEGPQTDGVTIGDKGECVITPSTDVKFDPGLKSKNKLNYLRNYWLLIGHHETPLSASTKMLERFPNNLPKHRENVIPADSEKKSFEEVINLVDQTSENAPTTVSRDVEEKPAHAPARPEAPVDSM
 |  |  |  | 2690 nM | Perk luminal domain region II–V (residues 105–509) (domain or fragment) LVIISTLDGRIAALDPENHGKKQWDLDVGSGSLVSSSLSKPEVFGNKMIIPSLDGALFQWDQDRESMETVPFTVESLLESSYKFGDDVVLVGGKSLTTYGLSAYSGKVRYICSALGCRQWDSDEMEQEEDILLLQRTQKTVRAVGPRSGNEKWNFSVGHFELRYIPDMETRAGFIESTFKPNENTEESKIISDVEEQEAAIMDIVIKVSVADWKVMAFSKKGGHLEWEYQFCTPIASAWLLKDGKVIPISLFDDTSYTSNDDVLEDEEDIVEAARGATENSVYLGMYRGQLYLQSSVRISEKFPSSPKALESVTNENAIIPLPTIKWKPLIHSPSRTPVLVGSDEFDKCLSNDKFSHEEYSNGALSILQYPYDNGYYLPYYKRERNKRSTQITVRFLDNPHYNKN
 |  |  |  | 2350 nM | Perk luminal domain region I–IV (residues 54–403) (domain or fragment) TSATRVPAAGAVAAAEVTVEDAEALPAAAGEQEPRGPEPDDETELRPRGRSLVIISTLDGRIAALDPENHGKKQWDLDVGSGSLVSSSLSKPEVFGNKMIIPSLDGALFQWDQDRESMETVPFTVESLLESSYKFGDDVVLVGGKSLTTYGLSAYSGKVRYICSALGCRQWDSDEMEQEEDILLLQRTQKTVRAVGPRSGNEKWNFSVGHFELRYIPDMETRAGFIESTFKPNENTEESKIISDVEEQEAAIMDIVIKVSVADWKVMAFSKKGGHLEWEYQFCTPIASAWLLKDGKVIPISLFDDTSYTSNDDVLEDEEDIVEAARGATENSVYLGMYRGQLYLQSSVRI
 |  |  |  | 1550 nM | Ire1 luminal domain region II–IV (residues 32–390) (domain or fragment) LLFVSTLDGSLHAVSKRTGSIKWTLKEDPVLQVPTHVEEPAFLPDPNDGSLYTLGSKNNEGLTKLPFTIPELVQASPCRSSDGILYMGKKQDIWYVIDLLTGEKQQTLSSAFADSLCPSTSLLYLGRTEYTITMYDTKTRELRWNATYFDYAASLPEDDVDYKMSHFVSNGDGLVVTVDSESGDVLWIQNYASPVVAFYVWQREGLRKVMHINVAVETLRYLTFMSGEVGRITKWKYPFPKETEAKSKLTPTLYVGKYSTSLYASPSMVHEGVAVVPRGSTLPLLEGPQTDGVTIGDKGECVITPSTDVKFDPGLKSKNKLNYLRNYWLLIGHHETPLSASTKMLERFPNNLPKHRENV
 |  |  |  | 2280 nM | Perk luminal domain region II–IV (printed residues 54–403) (domain or fragment) LVIISTLDGRIAALDPENHGKKQWDLDVGSGSLVSSSLSKPEVFGNKMIIPSLDGALFQWDQDRESMETVPFTVESLLESSYKFGDDVVLVGGKSLTTYGLSAYSGKVRYICSALGCRQWDSDEMEQEEDILLLQRTQKTVRAVGPRSGNEKWNFSVGHFELRYIPDMETRAGFIESTFKPNENTEESKIISDVEEQEAAIMDIVIKVSVADWKVMAFSKKGGHLEWEYQFCTPIASAWLLKDGKVIPISLFDDTSYTSNDDVLEDEEDIVEAARGATENSVYLGMYRGQLYLQSSVRI
 |  |  |  | 1860 nM | Ire1 luminal domain region I–IV (residues 24–390) (domain or fragment) STVTLPETLLFVSTLDGSLHAVSKRTGSIKWTLKEDPVLQVPTHVEEPAFLPDPNDGSLYTLGSKNNEGLTKLPFTIPELVQASPCRSSDGILYMGKKQDIWYVIDLLTGEKQQTLSSAFADSLCPSTSLLYLGRTEYTITMYDTKTRELRWNATYFDYAASLPEDDVDYKMSHFVSNGDGLVVTVDSESGDVLWIQNYASPVVAFYVWQREGLRKVMHINVAVETLRYLTFMSGEVGRITKWKYPFPKETEAKSKLTPTLYVGKYSTSLYASPSMVHEGVAVVPRGSTLPLLEGPQTDGVTIGDKGECVITPSTDVKFDPGLKSKNKLNYLRNYWLLIGHHETPLSASTKMLERFPNNLPKHRENV
